Assay results reported in patent US20070276124A1.

Key:
[1] = biological target: His6-Sep fusion protein from construct BspA-6xHis-Sep (Lactobacillus fermentum BR11); experiment: whole cell ELISA for the His6 epitope on L. fermentum cells with BspA-6xHis-Sep against parent BR11 cells
[2] = biological target: His6-Sep fusion protein from construct BspA-6xHis-Sep (Lactobacillus fermentum BR11); experiment: whole cell ELISA for the His6 epitope on L. fermentum cells with BspA-6xHis-Sep; parent BR11 cells gave 0.0168±0.0007

fold signal over L. fermentum BR11 parent cells [1]: 1.8 fold
A450nm signal per OD600 nm unit of cells (A450nm per OD600 nm unit of cells) [2]: 0.0302
Substance: anti-His5 monoclonal antibody (Qiagen, Hilden, Germany)
